Results taken from ChEMBL document CHEMBL1137897, “Inhibition of lysosomal cysteine proteases by chrysotherapeutic compounds: a possible mechanism for the antiarthritic activity of Au(I)” (Bioorg Med Chem Lett, 2004).

Legend:
AURANOFIN [1] = conditions: Paramecium tetraurelia; 3 uM
Description: Michaelis-Menten constant determined against Paramecium tetraurelia cathepsin L at 3 uM

AURANOFIN [2] = conditions: Paramecium tetraurelia; 30 uM
Description: Michaelis-Menten constant determined against Paramecium tetraurelia cathepsin L at 30 uM

AURANOFIN [3] = conditions: Paramecium tetraurelia; 300 nM
Description: Michaelis-Menten constant determined against Paramecium tetraurelia cathepsin L at 300 nM

AURANOFIN [4] = conditions: Paramecium tetraurelia; 300 uM
Description: Michaelis-Menten constant determined against Paramecium tetraurelia cathepsin L at 300 uM

B1: Putative cathepsin L 3 (Paramecium tetraurelia), Q94715 (protein)
chain: MKQFLTAAIVTLLMTAGYYHLQEDDTNDFERWALKNNKFYTESEKLYRMEIYNSNKRMIEEHNQREDVTYQMGENQFMTLSHEEFVDLYLQKSDSSVNIMGASLPEVQLEGLGAVDWRNYTTVKEQGQCASGWAFSVSNSLEAWYAIRGFQKINASTQQIVDCDYNNTGCSGGYNAYAMEYVLRVGLVSSTNYPYVAKNQTCKQSRNGTYFINGYSFVGGSQSNLQYYLNNYPISVGVEASNWQFYRSGLFSNCSSNGTNHYALAVGFDSANNWIVQNSWGTQWGESGNIRLYPQNTCGILNYPYQVY
- Km (AURANOFIN [1]): 32 µM
- Km (AURANOFIN [2]): 47 µM
- Km (AURANOFIN [3]): 27 µM
- Km (AURANOFIN [4]): 49 µM
